According to paper PMC11376570, “Enhancing the therapeutic potential of P29 protein-targeted monoclonal antibodies in the management of alveolar echinococcosis through CDC-mediated mechanisms” (PLOS Pathogens, 2024):

Assays:
[1] = molecular target: T1, peptide 13 of the 45 overlapping peptides of rEgP29 (Echinococcus granulosus); experiment: ELISA; peptide scan by indirect ELISA; 45 overlapping 15-mer peptides of rEgP29 coated at 5 ug/mL; purified mAb at 1:5,000; settings: both partners purified
T1 construct: residues 61-75 of P29 of Echinococcus granulosus, one of 45 overlapping 15-mers (overlap of 10 residues); source: synthetic peptide
T1 chain: NIASKVADAFQKNKE

[2] = molecular target: T2, recombinant Echinococcus granulosus P29 (Echinococcus granulosus, UniProt Q9U8G7); experiment: SPR; called SPR by the paper; mAb 4G10F4 (5 ug/mL) captured on the AMC probe, antigen P29 at 500, 250, 125, 62.5, 31.3 and 0 nM in PBST; Octet RH16 (Sartorius), Data Analysis 12.0; settings: both partners purified
T2 construct: P29, 29 kDa antigen of Echinococcus granulosus, GenBank AAD53328.1; 238 amino acids by the BLAST comparison with E. multilocularis P29 (235/238); band at about 30 kDa on SDS-PAGE; also called rEgP29; rEg.P29
T2 sequence (Q9U8G7 whole entry): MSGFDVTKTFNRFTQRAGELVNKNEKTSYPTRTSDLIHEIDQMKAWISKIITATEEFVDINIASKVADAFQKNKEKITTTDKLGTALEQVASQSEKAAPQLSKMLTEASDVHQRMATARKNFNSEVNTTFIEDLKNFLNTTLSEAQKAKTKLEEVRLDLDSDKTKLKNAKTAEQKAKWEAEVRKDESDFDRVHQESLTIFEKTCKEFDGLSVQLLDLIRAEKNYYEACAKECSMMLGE

B1: 4G10F4 monoclonal antibody against rEgP29 (antibody, V domains shown)
VH: EVKLEESGPGLVAPSQSLSITCTVSGFSLFSYAVHWVRQPPGKGLEWLGVIWAGGSTDYNSALMSRLSISKDNSKSQVFLKMNSLQTDDTAMYYCASIHYYGYWHFDVWGAGTTVTVSS
VL: DIVMTQSPLSLPVSLGDQASISCRSSQSIVHSNGNTYLEWYLQKPGQSPKLLIYKVSNRFSGVPDRFSGSGSGTDFTLKISRVEAEDLGVYYCFQGSHVPYTFGGGTKLEIK
notes: Mouse IgG1 (subtype by ELISA); also called 4G10F4 mAb; anti-P29 mAb; source: mouse hybridoma (BALB/c splenocytes fused with Sp2/0), culture supernatant; also purified from serum-free supernatant (protein G column)
**Q.** Does B1 bind [1]?
**A.** binds

**Q.** And the Kd [2]?
**A.** 6.29 nM

**Q.** What about the koff [2] of the same binder?
**A.** 0.00049 s⁻¹

**Q.** What about the kon [2] of the same binder?
**A.** 77800 M⁻¹ s⁻¹
